Test results from US20250002587A1 (University of California, published 2025).
Read-outs that look alike come from different tables or passages of the source.

Experiments:
[1] = molecular target: T1, cell surface-expressed human αvβ8 (human, UniProt P06756 31-1048; P26012 43-769); experiment: FACS titration on SNB19 human astrocytoma cells
T1 construct: whole, on cells; also called αvβ8 on SNB19 human astrocytoma cells
Procedure: (§1) The affinities of humanized, affinity-matured anti-αvβ8 IgGs (ADWA16-1, ADWA16-2, ADWA16-3, and ADWA16-4), a chimeric version of the parent ADWA16 murine IgG (ADWA16-chimera), and ADWA16 were measured on SNB19 human astrocytoma cells by FACS. IgGs were incubated at various concentrations with SNB19 cells for 1 hr at RT in PBS. Cells were washed twice with PBS and binding was detected by incubation with fluorescently-labeled anti-human (ADWA16-1, ADWA16-2, ADWA16-3, ADWA16-4, and ADWA16-chimera) or anti-mouse (ADWA16) secondary antibodies followed by two PBS wash steps and analysis by FACS. Binding affinities (shown in Table 3) were calculated using curve-fitting software.

[2] = molecular target: T1, cell surface-expressed human αvβ8; experiment: cell-based or functional assay
[3] = molecular target: T2, cell surface expressed human αvβ5 (mock transfected SW480 cells) (human, UniProt P06756 31-1048; P18084 24-799); experiment: flow cytometry on mock transfected SW480 cells (express only αvβ5); panel head 'A09 SW antihuman con'
T2 construct: whole, on cells
Procedure: (§2) The binding of ADWA16 and ADWA16-3.2 to cell surface expressed human αvβ3, αvβ5, αvβ6, and αvβ8 was tested by FACS. Flow cytometry was performed with either ADWA16-3 or ADWA16-3.2 with mock transfected SW480 cells (that express only αvβ5 integrin). SW480 cells were also transfected to express αvβ3 or αvβ6. SNB19 cells expressed αvβ3, αvβ5, and αvβ8.

[4] = molecular target: T1, cell surface-expressed human αvβ8; experiment: FACS titration on SNB19 human astrocytoma cells; Table 3 FACS series on SNB19 cells, run beside ADWA16, 16-chimera and 16-1 to 16-4
Procedure: as §1

[5] = molecular target: T3, cell surface expressed human αvβ3 (SW480 cells transfected to express αvβ3) (human, UniProt P06756 31-1048; P05106 27-788); experiment: flow cytometry on transfected SW480 cells
T3 construct: whole, on cells
Procedure: as §2

[6] = molecular target: T4, cell surface expressed human αvβ6 (SW480 cells transfected to express αvβ6) (human, UniProt P06756 31-1048; P18564 22-788); experiment: flow cytometry on transfected SW480 cells
T4 construct: whole, on cells
Procedure: as §2

recombinant mouse αvβ8 [7] = molecular target: T5, recombinant mouse αvβ8 (mouse, UniProt P43406 31-988; Q0VBD0 43-681, limits assumed); experiment: bio-layer interferometry, IgG on anti-human Fab-CH1 tips, αvβ8 200 nM
T5 construct: Soluble recombinant heterodimer used as analyte at 200 nM in BLI
Procedure: (§3) The affinities of humanized, affinity-matured anti-αvβ8 IgGs (ADWA16-1, ADWA16-2, ADWA16-3, and ADWA16-4) and a chimeric version of the parent ADWA-16 murine IgG (ADWA16-chimera) were measured for recombinant human and mouse αvβ8 using bio-layer interferometry. Anti-human Fab-CH1 tips were loaded with humanized anti-αvβ8 IgGs (ADWA16-1, ADWA16-2, ADWA16-3, and ADWA16-4) or chimeric ADWA-16 followed by an association step with either human or mouse αvβ8 (200 nM) and a subsequent dissociation step. All steps were carried out in binding buffer (25 mM Tris, 0.15 M NaCl, 0.05% Tween-20, pH 7.5). Binding affinities (shown in Table 2) were calculated using curve-fitting software. FIGS. 3A-3E show association/dissociation curves for each antibody.

recombinant human αvβ8 [8] = molecular target: T6, recombinant human αvβ8 (human, UniProt P06756 31-992; P26012 43-684); experiment: as above
T6 construct: Soluble recombinant heterodimer used as analyte at 200 nM in BLI
Procedure: as §3

recombinant mouse αvβ8 [9] = molecular target: T5, recombinant mouse αvβ8; experiment: as above; remark: listed apart in the source
Procedure: (§4) The affinities of humanized, affinity-matured anti-αvβ8 IgGs (ADWA16-3 and ADWA16-3.2) and a chimeric version of the parent ADWA16 murine IgG (ADWA16-chimera) were measured for recombinant human and mouse αvβ8 using bio-layer interferometry. Anti-human Fab-CH1 tips were loaded with humanized anti-αvβ8 IgGs or chimeric ADWA16 followed by an association step with either human or mouse αvβ8 (200 nM) and a subsequent dissociation step. All steps were carried out in binding buffer (25 mM Tris, 0.15 M NaCl, 0.05% Tween-20, pH 7.5). Binding affinities (shown in Table 4) were calculated using curve-fitting software.

recombinant human αvβ8 [10] = molecular target: T6, recombinant human αvβ8; experiment: as above; remark: listed apart in the source
Procedure: as §4

[11] = molecular target: T1, cell surface-expressed human αvβ8; experiment: FACS titration on SNB19 human astrocytoma cells; Example 7 FACS series on SNB19 cells, run beside ADWA16-3.2
Procedure: (§5) The affinities of humanized, affinity-matured, and N-glycosylation site removed anti-αvβ8 IgGs (ADWA16-3 and ADWA16-3.2) were measured on SNB19 human astrocytoma cells by FACS. IgGs were incubated at various concentrations with SNB19 cells for 1 hr at RT in PBS. Cells were washed twice with PBS and binding was detected by incubation with fluorescently-labeled anti-human secondary antibodies followed by two PBS wash steps and analysis by FACS.

[12] = molecular target: T1, cell surface-expressed human αvβ8; experiment: FACS titration on SNB19 human astrocytoma cells; Example 13 FACS series on SNB19 cells, run beside ADWA11
Procedure: (§6) The affinities of ADWA16-3.2 and ADWA11 were measured on SNB19 human astrocytoma cells by FACS. IgGs were incubated at various concentrations with SNB19 cells for 1 hour at RT in PBS. Cells were washed twice with PBS and binding was detected by incubation with fluorescently-labeled anti-human secondary antibodies followed by two PBS wash steps and analysis by FACS. Binding affinities were calculated using curve-fitting software.

[13] = molecular target: T1, cell surface-expressed human αvβ8; experiment: FACS titration on SNB19 human astrocytoma cells; Example 7 FACS series on SNB19 cells, run beside ADWA16-3
Procedure: as §5

[14] = molecular target: T1, cell surface-expressed human αvβ8; experiment: FACS on SNB19 human astrocytoma cells, fluorescent secondary antibody
Procedure: as §6

[15] = molecular target: T7, surface-expressed mouse αvβ8 on murine astrocytes (mouse, UniProt P43406 31-1044; Q0VBD0 22-767); experiment: FACS titration on murine astrocytes
T7 construct: whole, on cells
Procedure: The affinities of ADWA16, ADWA11, and ADWA16-3.2 were measured on murine astrocytes by FACS. IgGs were incubated at various concentrations with the cells for 1 hr at RT in PBS. Cells were washed twice with PBS and binding was detected by incubation with fluorescently-labeled anti-human or anti-mouse secondary antibodies followed by two PBS wash steps and analysis by FACS.

[16] = molecular target: T1, cell surface-expressed human αvβ8; experiment: FACS titration on SNB19 human astrocytoma cells; Example 13 FACS on SNB19 cells; detected with anti-human secondary, ADWA11 format not stated
Procedure: as §6

T5 sequence (P43406 31-988 limits assumed, chain 1 of 2): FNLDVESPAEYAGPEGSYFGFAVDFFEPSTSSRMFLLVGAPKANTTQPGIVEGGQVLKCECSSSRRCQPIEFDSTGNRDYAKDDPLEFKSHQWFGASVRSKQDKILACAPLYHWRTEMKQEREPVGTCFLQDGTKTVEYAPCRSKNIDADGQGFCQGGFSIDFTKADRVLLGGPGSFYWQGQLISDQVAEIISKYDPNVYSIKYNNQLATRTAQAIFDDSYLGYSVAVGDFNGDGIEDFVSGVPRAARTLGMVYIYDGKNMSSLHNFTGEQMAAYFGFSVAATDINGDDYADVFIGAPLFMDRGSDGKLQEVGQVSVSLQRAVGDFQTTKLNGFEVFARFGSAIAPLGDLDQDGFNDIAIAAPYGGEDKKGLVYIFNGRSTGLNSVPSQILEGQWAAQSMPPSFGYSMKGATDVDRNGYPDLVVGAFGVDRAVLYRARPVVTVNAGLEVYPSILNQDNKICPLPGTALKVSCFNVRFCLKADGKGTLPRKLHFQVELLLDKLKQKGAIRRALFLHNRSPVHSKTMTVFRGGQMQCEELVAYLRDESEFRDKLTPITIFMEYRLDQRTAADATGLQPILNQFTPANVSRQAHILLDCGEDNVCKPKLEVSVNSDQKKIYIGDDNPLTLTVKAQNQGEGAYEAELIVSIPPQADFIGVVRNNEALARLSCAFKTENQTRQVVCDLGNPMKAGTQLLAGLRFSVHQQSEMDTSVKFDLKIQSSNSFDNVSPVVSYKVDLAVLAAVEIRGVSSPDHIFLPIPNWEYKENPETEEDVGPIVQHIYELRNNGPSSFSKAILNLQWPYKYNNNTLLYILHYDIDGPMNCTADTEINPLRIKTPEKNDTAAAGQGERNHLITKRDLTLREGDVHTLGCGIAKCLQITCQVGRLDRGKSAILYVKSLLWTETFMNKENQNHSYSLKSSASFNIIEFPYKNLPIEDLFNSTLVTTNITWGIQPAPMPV
T5 sequence (Q0VBD0 43-681 limits assumed, chain 2 of 2): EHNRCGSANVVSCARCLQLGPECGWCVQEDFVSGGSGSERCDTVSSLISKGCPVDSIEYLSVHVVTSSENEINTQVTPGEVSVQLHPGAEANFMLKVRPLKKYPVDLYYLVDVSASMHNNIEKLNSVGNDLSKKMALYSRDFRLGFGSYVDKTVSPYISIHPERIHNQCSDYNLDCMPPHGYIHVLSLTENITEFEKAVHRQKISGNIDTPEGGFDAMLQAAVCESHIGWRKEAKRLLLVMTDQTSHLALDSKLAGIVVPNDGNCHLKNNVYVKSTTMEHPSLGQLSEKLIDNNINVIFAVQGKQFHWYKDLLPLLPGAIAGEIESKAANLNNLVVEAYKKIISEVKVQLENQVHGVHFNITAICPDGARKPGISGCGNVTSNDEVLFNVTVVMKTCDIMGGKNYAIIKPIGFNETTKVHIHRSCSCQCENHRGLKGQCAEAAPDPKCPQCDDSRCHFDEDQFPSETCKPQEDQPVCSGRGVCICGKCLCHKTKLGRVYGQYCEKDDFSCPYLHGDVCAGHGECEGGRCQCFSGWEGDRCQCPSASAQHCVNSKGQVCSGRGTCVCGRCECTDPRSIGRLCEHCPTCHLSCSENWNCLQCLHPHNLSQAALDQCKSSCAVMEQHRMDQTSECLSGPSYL
T6 sequence (P06756 31-992 limits assumed, chain 1 of 2): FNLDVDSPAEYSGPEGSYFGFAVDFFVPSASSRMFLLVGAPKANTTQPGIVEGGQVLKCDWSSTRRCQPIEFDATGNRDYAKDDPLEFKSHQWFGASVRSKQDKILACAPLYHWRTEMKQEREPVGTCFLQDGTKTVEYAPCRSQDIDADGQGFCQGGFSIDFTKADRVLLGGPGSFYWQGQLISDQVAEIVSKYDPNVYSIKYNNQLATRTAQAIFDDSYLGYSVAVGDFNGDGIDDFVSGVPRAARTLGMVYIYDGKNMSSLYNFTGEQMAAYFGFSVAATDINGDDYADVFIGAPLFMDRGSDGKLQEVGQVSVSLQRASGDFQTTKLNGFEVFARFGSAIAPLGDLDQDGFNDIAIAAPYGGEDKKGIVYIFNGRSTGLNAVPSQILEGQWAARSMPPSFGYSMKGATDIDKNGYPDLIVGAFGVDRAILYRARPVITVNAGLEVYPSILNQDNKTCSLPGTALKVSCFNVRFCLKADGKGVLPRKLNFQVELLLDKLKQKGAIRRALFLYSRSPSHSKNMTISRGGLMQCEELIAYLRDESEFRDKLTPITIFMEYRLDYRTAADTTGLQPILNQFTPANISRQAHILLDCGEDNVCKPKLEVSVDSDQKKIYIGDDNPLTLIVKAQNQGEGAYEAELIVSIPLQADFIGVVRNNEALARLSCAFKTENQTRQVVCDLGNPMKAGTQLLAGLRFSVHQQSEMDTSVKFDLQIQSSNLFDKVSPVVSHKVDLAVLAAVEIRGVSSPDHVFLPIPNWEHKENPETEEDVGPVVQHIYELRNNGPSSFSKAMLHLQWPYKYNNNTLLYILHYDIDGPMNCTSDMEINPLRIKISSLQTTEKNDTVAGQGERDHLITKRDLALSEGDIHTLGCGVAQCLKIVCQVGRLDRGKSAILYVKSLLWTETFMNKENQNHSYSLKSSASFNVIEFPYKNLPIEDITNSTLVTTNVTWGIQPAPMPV
T6 sequence (P26012 43-684 limits assumed, chain 2 of 2): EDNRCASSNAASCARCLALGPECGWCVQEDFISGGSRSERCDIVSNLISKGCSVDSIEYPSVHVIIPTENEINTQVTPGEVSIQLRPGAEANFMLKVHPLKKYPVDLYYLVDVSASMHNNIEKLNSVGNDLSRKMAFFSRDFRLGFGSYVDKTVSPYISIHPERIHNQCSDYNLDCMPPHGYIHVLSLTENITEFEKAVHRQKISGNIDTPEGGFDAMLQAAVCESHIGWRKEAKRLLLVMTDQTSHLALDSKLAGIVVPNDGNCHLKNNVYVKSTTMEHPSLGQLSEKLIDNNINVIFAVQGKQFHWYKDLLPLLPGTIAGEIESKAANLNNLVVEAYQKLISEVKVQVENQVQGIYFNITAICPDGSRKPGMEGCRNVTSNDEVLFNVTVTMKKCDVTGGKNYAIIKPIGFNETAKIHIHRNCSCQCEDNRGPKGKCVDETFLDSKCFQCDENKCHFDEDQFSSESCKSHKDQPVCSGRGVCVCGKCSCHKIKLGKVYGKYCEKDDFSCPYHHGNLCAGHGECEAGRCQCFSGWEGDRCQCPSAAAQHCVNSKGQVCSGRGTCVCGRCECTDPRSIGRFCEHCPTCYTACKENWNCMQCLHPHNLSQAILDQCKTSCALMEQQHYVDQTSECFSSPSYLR
T1 sequence (P06756 31-1048, chain 1 of 2): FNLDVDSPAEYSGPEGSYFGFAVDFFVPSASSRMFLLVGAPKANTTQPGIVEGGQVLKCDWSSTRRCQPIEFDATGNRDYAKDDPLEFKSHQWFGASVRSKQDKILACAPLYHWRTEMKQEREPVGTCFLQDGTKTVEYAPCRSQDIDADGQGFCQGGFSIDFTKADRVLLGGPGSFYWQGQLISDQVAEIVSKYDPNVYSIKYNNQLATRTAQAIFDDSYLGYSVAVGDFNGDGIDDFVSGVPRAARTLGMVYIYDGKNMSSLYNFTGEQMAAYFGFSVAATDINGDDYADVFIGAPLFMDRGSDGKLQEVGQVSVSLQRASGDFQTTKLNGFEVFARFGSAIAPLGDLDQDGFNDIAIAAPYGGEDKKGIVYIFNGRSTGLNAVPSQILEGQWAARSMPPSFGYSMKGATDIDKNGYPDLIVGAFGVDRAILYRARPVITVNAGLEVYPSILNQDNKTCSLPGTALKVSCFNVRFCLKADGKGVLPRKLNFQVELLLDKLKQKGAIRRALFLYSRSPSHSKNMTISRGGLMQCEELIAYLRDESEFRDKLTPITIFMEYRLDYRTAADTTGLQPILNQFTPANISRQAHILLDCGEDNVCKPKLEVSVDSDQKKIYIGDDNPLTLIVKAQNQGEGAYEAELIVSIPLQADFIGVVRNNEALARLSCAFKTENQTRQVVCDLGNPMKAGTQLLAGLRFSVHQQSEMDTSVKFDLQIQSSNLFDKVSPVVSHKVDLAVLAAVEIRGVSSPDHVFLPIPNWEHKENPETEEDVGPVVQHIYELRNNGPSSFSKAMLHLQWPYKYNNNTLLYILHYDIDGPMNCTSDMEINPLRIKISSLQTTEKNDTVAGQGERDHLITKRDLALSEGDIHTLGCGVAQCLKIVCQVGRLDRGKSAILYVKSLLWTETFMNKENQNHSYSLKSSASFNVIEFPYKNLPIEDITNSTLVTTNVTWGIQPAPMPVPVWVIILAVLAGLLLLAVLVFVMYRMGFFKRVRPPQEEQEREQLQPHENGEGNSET
T1 sequence (P26012 43-769, chain 2 of 2): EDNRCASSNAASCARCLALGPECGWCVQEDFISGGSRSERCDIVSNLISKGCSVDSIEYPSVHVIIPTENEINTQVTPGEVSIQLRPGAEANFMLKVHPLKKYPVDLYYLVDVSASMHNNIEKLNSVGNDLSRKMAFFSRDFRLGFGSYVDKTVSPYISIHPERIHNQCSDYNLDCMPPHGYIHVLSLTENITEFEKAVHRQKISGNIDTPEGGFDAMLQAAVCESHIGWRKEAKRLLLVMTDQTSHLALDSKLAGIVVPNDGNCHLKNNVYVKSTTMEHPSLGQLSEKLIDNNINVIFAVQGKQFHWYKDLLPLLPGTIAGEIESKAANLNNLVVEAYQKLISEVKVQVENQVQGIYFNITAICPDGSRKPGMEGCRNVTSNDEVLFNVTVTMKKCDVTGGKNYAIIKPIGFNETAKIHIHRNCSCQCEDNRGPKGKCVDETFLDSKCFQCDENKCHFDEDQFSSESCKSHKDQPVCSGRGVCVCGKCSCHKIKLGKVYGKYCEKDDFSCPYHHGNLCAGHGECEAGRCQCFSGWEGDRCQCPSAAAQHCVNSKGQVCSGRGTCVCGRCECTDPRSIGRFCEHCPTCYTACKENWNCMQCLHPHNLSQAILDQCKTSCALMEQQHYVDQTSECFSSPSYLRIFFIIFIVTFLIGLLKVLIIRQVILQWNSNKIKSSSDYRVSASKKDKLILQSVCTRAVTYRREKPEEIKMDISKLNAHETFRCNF

B1: ADWA16 (antibody, V domains shown)
VH: QVQLQQSGAELAKPGASMKMSCKASGYTFSSYWIYWVKQRPGQGLEWIGYINPTTGYTEYNQKFRDKATLTADKSSNTAYMQLSSLTSEDSAVYYCATEGGNWEDYWGQGTTLTVSS
VL: DIQMTQTTSSLSASLGDRVTISCRASQDISNYLNWYQQKPDGTVKLLIYYTSRLYSGVPSRFSGSGSGTDYSLTISNLEPKDIATYYCQQFSELPRTFGGGTKLEIK
notes: Murine IgG, detected with anti-mouse secondary antibody; also called parent murine IgG; murine parent ADWA16
Kd [1]: 0.417 nM | IC50, inhibition of SNB19 cell adhesion to TGFβ1-LAP [2]: 1.1 nM | IC50, inhibition of TGFβ activation (SNB19 / TMLC luciferase reporter co-culture) [2]: 0.364 nM | inhibition of adhesion of L229 cells to LAP (potency relative to ADWA11) [2]: ~10 fold

B2: ADWA16-3 (antibody, V domains shown)
VH: EVQLVESGGGLVQPGGSLRLSCAVSGYIFSSYWVYWVRQAPGKGLEWVGYINPTTGYTEYADSVKGRFTISRDNSKNTLYLQMNSLRAEDTAVYYCATEGGNWEDYWGQGTLVTVSS
VL: DIQMTQSPSSLSASVGDRVTITCRASQDISNYINWYQQKPGKAPKLLIYYTSRLYGGVPSRFSGSGSGTDFTLTISSLQPEDFATYYCQQFSELPRTFGQGTKVEIK
binding result [3]: no binding | Kd [4]: 0.389 nM | binding result [5]: no binding | binding result [6]: no binding | IC50, inhibition of TGFβ activation (SNB19 / TMLC luciferase reporter co-culture) [2]: 1.36 nM | Kd (recombinant mouse αvβ8 [7]): 5 nM | Kd (recombinant human αvβ8 [8]): 0.83 nM | Kd (recombinant mouse αvβ8 [9]): 3.15 nM | Kd (recombinant human αvβ8 [10]): 1.16 nM | Kd [11]: 0.83 nM

B3: ADWA16-1 (antibody, V domains shown)
VH: EVQLVESGGGLVQPGGSLRLSCAVSGYIFSSYWVYWVRQAPGKGLEWVGYINPTTGYTEYADSVKGRFTISRDNSKNTLYLQMNSLRAEDTAVYYCATEGGNWEDYWGQGTLVTVSS
VL: DIQMTQSPSSLSASVGDRVTITCRASQDISNYINWYQQKPGKAPKLLIYYTSRLYSGVPSRFSGSGSGTDFTLTISSLQPEDFATYYCQQFSELPRTFGQGTKVEIK
Kd [1]: 0.459 nM | Kd (recombinant mouse αvβ8 [7]): 4.8 nM | Kd (recombinant human αvβ8 [8]): 0.73 nM

B4: ADWA16-2 (antibody, V domains shown)
VH: EVQLVESGGGLVQPGGSLRLSCAVSGYIFSSYWVYWVRQAPGKGLEWVGYINPTTGYTEYADSVKGRFTISRDNSKNTLYLQMNSLRAEDTAVYYCATEGGNWEDYWGQGTLVTVSS
VL: DIQMTQSPSSLSASVGDRVTITCRASKDISNYLNWYQQKPGKAPKLLIYYTSRLYSGVPSRFSGSGSGTDFTLTISSLQPEDFATYYCQQFSELPRTFGQGTKVEIK
Kd [1]: 0.498 nM | Kd (recombinant mouse αvβ8 [7]): 8.5 nM | Kd (recombinant human αvβ8 [8]): 2 nM

B5: ADWA16-3.2 (antibody, V domains shown)
VH: EVQLVESGGGLVQPGGSLRLSCAVSGYIFSSYWVYWVRQAPGKGLEWVGYISPTTGYTVYADSVKGRFTISRDNSKNTLYLQMNSLRAEDTAVYYCATEGGNWEDYWGQGTLVTVSS
VL: DIQMTQSPSSLSASVGDRVTITCRASQDISNYINWYQQKPGKAPKLLIYYTSRLYGGVPSRFSGSGSGTDFTLTISSLQPEDFATYYCQQFSELPRTFGQGTKVEIK
notes: also called humanized derivative of ADWA16
Kd [12]: 0.392 nM | Kd [13]: 0.512 nM | binding result [3]: no binding | EC50 (read off the curve) [14]: ~0.4 nM | binding result [5]: no binding | binding result [6]: no binding | IC50, inhibition of SNB19 cell adhesion to TGFb1 LAP [2]: 0.65 nM | IC50, inhibition of SNB19 cell adhesion to TGFβ1-LAP [2]: 2.1 nM | IC50, inhibition of TGFβ activation (SNB19 / TMLC luciferase reporter co-culture) [2]: 0.58 nM | Kd [15]: 1.1 nM | Kd (recombinant mouse αvβ8 [9]): 1.06 nM | Kd (recombinant human αvβ8 [10]): 0.688 nM

B6: ADWA16-4 (antibody, V domains shown)
VH: EVQLVESGGGLVQPGGSLRLSCAVSGYIFSSYWVYWVRQAPGKGLEWVGYINPTTGYTEYADSVKGRFTISRDNSKNTLYLQMNSLRAEDTAVYYCATEGGNWEDYWGQGTLVTVSS
VL: DIQMTQSPSSLSASVGDRVTITCRASKDISNYINWYQQKPGKAPKLLIYYTSRLYGGVPSRFSGSGSGTDFTLTISSLQPEDFATYYCQQFSELPRTFGQGTKVEIK
Kd [1]: 0.614 nM | Kd (recombinant mouse αvβ8 [7]): 8 nM | Kd (recombinant human αvβ8 [8]): 0.86 nM

B7: ADWA11 (antibody, V domains shown)
VH: EVQLQQSGAELVRPGAFVKLSCKASGFNIKDYYMNWVLQRPEQGLEWIGWIDPDNGNTIYDPKFQGKASITADTSSNTAYLQLSSLTSEDTAVYYCARRLLMDYWGQGTSVTVSS
VL: DIVMTQAAPSVPVTPGESVSISCRSTKSLLHFNGNTYLFWFLQRPGQSPQRLIYYMSNLASGVPDRFSGRGSGTDFTLRISRVEAEDVGVYYCMQSLEYPFTFGTGTKLEIK
notes: IgG; also called ADWA1l
Kd [16]: 1.04 nM | EC50 (read off the curve) [14]: ~1 nM | IC50, inhibition of SNB19 cell adhesion to TGFb1 LAP [2]: 1.44 nM | Kd [15]: 5.6 nM

B8: ADWA16-chimera (antibody, V domains shown)
VH: QVQLQQSGAELAKPGASMKMSCKASGYTFSSYWIYWVKQRPGQGLEWIGYINPTTGYTEYNQKFRDKATLTADKSSNTAYMQLSSLTSEDSAVYYCATEGGNWEDYWGQGTTLTVSS
VL: DIQMTQTTSSLSASLGDRVTISCRASQDISNYLNWYQQKPDGTVKLLIYYTSRLYSGVPSRFSGSGSGTDYSLTISNLEPKDIATYYCQQFSELPRTFGGGTKLEIK
notes: It was captured on anti-human Fab-CH1 tips and detected with anti-human secondary, so it has human constant regions; also called chimeric ADWA-16; chimeric version of the parent ADWA16 murine IgG
Kd [1]: 0.302 nM | Kd (recombinant mouse αvβ8 [7]): 21 nM | Kd (recombinant human αvβ8 [8]): 0.95 nM | Kd (recombinant mouse αvβ8 [9]): 21 nM | Kd (recombinant human αvβ8 [10]): 0.95 nM
